{"source": "patent US20080070264A1", "about": "“Intracellular Signaling-Induced Ret-Independent Gdnf Receptor-Effected Morphological Changes” (JPMORGAN CHASE BANK N.A., priority 2003, published 2008)", "molecules": {"B1": {"name": "GDNF: recombinant glial cell line-derived neurotrophic factor from Cephalon Inc. (baculovirus-infected insect cells) or R&D Systems, Inc. (mouse myeloma NSO) (protein, UniProt P39905 78-211, looked up)", "Glial cell line-derived …": "SPDKQMAVLPRRERNRQAAAANPENSRGKGRRGQRGKNRGCVLTAIHLNVTDLGLGYETKEELIFRYCSGSCDAAETTYDKILKNLSRNRRLVSDKVGQACCRPIAFDDDLSFLDDNLVYHILRKHSAKRCGCI"}}, "key": {"[1]": {"tested_on": "GFRα1-expressing MDCK cells", "assay": "Branching tubule formation assay in 3-D collagen gel", "type": "cell-based, dog", "method": "(§1) From the total amount of cysts in the field, the percentage of cysts with long branches was calculated. Only branches with lengths of more than two cyst diameters were counted.\n(§2) FIG. 2C: Dose-dependence of GDNF-induced branching of GFRα1- and RET/GFRα1-expressing MDCK cells. GDNF concentrations are per ml (x-axis). Results are reported as fold of branching cysts count over the non-induced control. Means±standard errors of the mean of five to eight counted fields are shown. The results are representative of five (A and B) and three (C) independent experiments, p<0.001.\n(§3) Trypsinized cells were mixed 1:3 with collagen type I solution and plated. MEM with 10% FCS was overlaid on the gels with or without GDNF (Cephalon Inc. or R&D Systems, Inc.) or 50 ng/ml HGF. Cells in collagen were cultured for 3 days; GDNF-containing medium was changed daily. For quantification, cells were cultured for 3 days, fixed by 3% glutaraldehyde in PBS and counted under a light microscope.\n(§4) To avoid the effect of possible contamination of GDNF preparation, recombinant GDNF from two different sources were tested. One tested GDNF was expressed in baculovirus-infected insect cells (Cephalon Inc.), the other was expressed in mouse myeloma cell line NSO (R&D Systems, Inc.)."}, "[2]": {"tested_on": "RET/GFRα1-expressing MDCK cells", "assay": "Branching tubule formation assay in 3-D collagen gel", "type": "cell-based, dog", "method": "as §1, §2, §3, §4"}, "[3]": {"tested_on": "Src-type kinases", "assay": "Src activation (Tyr418 phosphorylation) in MDCK cells", "type": "cell-based, dog", "conditions": "GFRα1-expressing and RET/GFRα1-expressing MDCK cells", "method": "FIG. 7A: Dose-dependent Src-kinase activation by GDNF in GFRα1-expressing and RET/GFRα1-expressing MDCK cells. The activation of Src-type kinases was observed after 15 minutes. The concentrations of GDNF are indicated. The numbers below the lane reflect the fold of increase in phosphorylation of Tyr418 of Src. The lower panels show the re-probing of the same filter with anti-Src antibodies. The results are representative of three independent experiments.\nTo analyze Src activation, subconfluent GFRα1- and RET/GFRα1-expressing MDCK cell cultures were starved for 24 h before induction in serum-free MEM. After 10 min incubation at 37° C. with 50 ng/ml GDNF (Cephalon Inc. or R&D Systems, Inc.) or 50 ng/ml HGF (Sigma) cells were lysed in lysis buffer supplemented with 1 mM Na-orthovanadate and analyzed by Western blotting as described (Lindahl et al., 2001). The Western blots were probed with the indicated antibodies and developed with ECL reagents (Amersham Pharmacia Biotech). Antibodies used included anti-Y^418 Src and anti-Src (BioSource International).\nPossible candidates for messengers between GDNF-GFRα1 complex and MET are Src family kinases. […]"}, "[4]": {"target": "T1, MET (Chlorocebus aethiops, UniProt Q2IBA6)", "T1 construct": "different combinations of the MET β-subunit (140 kDa), Met-αβ heterodimer (190 kDa) and HGF complexes; endogenous in cells; host or cells: COS7 cells (wild type for 125I-HGF; transfected with pc3-GFRα1/GFP for 125I-GDNF)", "T1 sequence (Q2IBA6 25-1381)": "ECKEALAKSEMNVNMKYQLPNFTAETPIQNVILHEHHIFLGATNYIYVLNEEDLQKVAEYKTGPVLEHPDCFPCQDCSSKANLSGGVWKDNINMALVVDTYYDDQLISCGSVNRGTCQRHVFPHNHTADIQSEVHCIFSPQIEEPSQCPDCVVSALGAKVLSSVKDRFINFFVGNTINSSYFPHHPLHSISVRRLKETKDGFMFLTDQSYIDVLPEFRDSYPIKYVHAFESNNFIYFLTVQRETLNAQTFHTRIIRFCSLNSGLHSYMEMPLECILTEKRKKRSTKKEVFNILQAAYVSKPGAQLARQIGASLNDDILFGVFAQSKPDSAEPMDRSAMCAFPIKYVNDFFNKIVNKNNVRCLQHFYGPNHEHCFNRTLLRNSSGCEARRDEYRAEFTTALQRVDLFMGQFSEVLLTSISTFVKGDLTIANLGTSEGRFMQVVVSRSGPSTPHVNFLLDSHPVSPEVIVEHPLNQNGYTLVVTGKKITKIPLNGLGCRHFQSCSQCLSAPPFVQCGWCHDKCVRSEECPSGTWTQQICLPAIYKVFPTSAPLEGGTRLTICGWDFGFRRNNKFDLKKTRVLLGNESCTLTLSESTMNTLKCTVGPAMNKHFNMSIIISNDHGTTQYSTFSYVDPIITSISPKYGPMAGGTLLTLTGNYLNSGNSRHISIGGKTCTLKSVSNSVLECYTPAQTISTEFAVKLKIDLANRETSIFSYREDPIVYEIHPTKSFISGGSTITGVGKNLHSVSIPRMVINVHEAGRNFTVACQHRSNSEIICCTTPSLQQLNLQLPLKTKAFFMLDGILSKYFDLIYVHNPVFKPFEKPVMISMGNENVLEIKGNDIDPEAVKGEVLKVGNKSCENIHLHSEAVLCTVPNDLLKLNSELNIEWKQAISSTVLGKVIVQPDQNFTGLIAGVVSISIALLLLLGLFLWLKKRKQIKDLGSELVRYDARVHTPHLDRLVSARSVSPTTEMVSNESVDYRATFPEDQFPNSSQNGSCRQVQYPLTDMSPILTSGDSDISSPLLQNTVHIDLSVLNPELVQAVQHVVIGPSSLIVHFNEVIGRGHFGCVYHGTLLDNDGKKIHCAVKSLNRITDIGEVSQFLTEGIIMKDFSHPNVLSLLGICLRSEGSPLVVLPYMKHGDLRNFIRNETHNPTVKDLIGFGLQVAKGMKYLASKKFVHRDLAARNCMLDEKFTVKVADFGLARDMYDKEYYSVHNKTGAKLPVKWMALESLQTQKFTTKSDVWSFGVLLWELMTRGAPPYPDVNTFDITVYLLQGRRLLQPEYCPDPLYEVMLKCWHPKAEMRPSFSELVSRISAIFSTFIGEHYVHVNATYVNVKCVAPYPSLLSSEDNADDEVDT", "assay": "125I-labelled GDNF and HGF binding, chemical crosslinking, anti-MET immunoprecipitation", "conditions": "RET/GFRα1-expressing MDCK cells; data not shown", "method": "Binding of ^125I-GDNF to COS7 cells transfected with GFRα1, and ^125-HGF to wild-type COS7, followed by cross-linking with EDC together with sulfo-NHS. Inmunoprecipitates with anti-MET antibodies (IP-Met) were analysed by SDS-PAGE under reducing conditions. ^125I-HGF α subunit and proHGF are marked by arrows. ^125I-HGF/MET complexes are denoted by arrow heads. The results are representative of five independent experiments.\nGDNF and HGF were enzymatically iodinated with [^125I]NaI (Amersham Pharmacia Biotech) with lactoperoxidase to a specific activity of 100.000 cpm/ng as described (31). COS7 cells were transfected with pc3-GFRα1/GFP two days prior the assay. 2 nM of ^125I-GDNF or 1 nM of ^125I-HGF were allowed to bind to cell monolayers for 1-2 h on ice in binding buffer (DMEM/15 mM HEPES, pH 7.5; 0.2% BSA), washed, and chemically cross-linked for 30 min at room temperature using BS^3 ([Bis(sulfosuccinimidyl)suberate]), DSS ((Disulfosuccinimidyl)suberate), DSP (3,3-Dithio-bis-(sulfosuccinimidyl)propionate) or EDC ((1-Ethyl-3-[3-dimethylaminopropyl]carbodiimide Hydrochloride)) with sulfo-NHS (N-Hydroxysulfosuccinimide) (Pierce). The non-specific binding of GDNF was estimated by the amount of ^125I-GDNF binding to cells in the presence of 300 n M unlabeled GDNF. Cells were washed, lysed and immunoprecipitated with anti-MET antibodies as described. Gels were dried and analyzed by phosphorimaging in a BAS Reader 1800 (Fuji)."}, "[5]": {"tested_on": "ret −/−, ret +/− and ret +/+ kidney explants", "assay": "Ureteric branching in cultured E11 urogenital block explants", "set-up": "species or system mouse", "method": "FIG. 8A-FIG. 8D: Urogenital blocks including the Wolffian duct (wd), mesonephros (meso) and metanephros (meta) were dissected from E11 ret −/− (panels A, B), ret +/− (panel C) and ret +/+ (panel D) mouse embryos. The two urogenital blocks from the embryos were separately cultured for 4 days. One side was cultured without GDNF (panels A, C, D) and the other side with 50 ng/ml of GDNF (panel B). Urogenital block explants were fixed and immunostained with pan-cytokeratin antibodies. Scale bar: 200 μm.\nFIG. 8E: The number of ureteric branches of ret −/−, ret +/− and ret +/+ kidneys with or without GDNF supplementation. Numbers in parenthesis indicate the kidney explants counted. […] Each result represents the mean±SEM (n=5).\nTo analyze the possible role of RET-independent, GFRα1-mediated signaling in ureteric budding and branching during nephrogenesis, the ability of exogenous GDNF to induce ureteric budding or sustain its branching in ret-deficient mice was tested. E11 ret −/− urogenital blocks including kidney rudiments were cultured for 4 days with or without 50 ng/ml of GDNF (FIG. 8). […] Thus, RET-independent signaling by GDNF has an apparent role in the ureteric branching, but may be less significant in the primary bud formation."}, "[6]": {"conditions": "ligand 100 ng/ml, 3-D collagen gel"}}, "note": "Entries after “also recorded” stand apart in the source; their conditions may differ.", "data": [{"molecule": "B1", "values": [{"measurement": "GDNF concentration that evoked tubulogenesis", "setting": "[1]; cells expressing GFRα1 but not RET, dose-response FIG. 2C", "value": 0.1, "unit": "pg/ml"}, {"measurement": "branching tubule formation", "setting": "[1]; [6]", "value": "formed branching tubules"}, {"measurement": "branching tubulogenesis", "setting": "[1]; wild-type MDCK transduced with an adenovirus expressing GFRα1, data not shown", "value": "induced branching tubulogenesis"}, {"measurement": "GDNF concentration at which cells started to branch", "setting": "[2]; cells co-expressing RET and GFRα1, dose-response FIG. 2C", "value": 0.1, "unit": "ng/mL"}, {"measurement": "branching tubule formation", "setting": "[2]; [6]", "value": "formed branching tubules"}, {"measurement": "GDNF concentration that saturated Src phosphorylation", "setting": "[3]", "value": 0.1, "unit": "pg/mL"}, {"measurement": "time at which activation of Src-type kinases was observed", "setting": "[3]", "value": 15, "unit": "min"}, {"measurement": "direct association of the GDNF receptor complex and MET", "setting": "[4]", "value": "no direct association"}, {"measurement": "number of ureteric bud tips", "setting": "[5]; ret +/− explants, GDNF 50 ng/ml, 4 days culture", "value": "increased the number of ureteric bud tips"}, {"measurement": "number of ureteric bud tips / ureteric branching", "setting": "[5]; ret −/− explants, GDNF 50 ng/ml, 4 days culture", "value": "increased but not to the level seen in wild type kidneys; also recorded: significantly increased ureteric branching"}, {"measurement": "number of urogenital explants completely lacking a ureteric bud", "setting": "[5]; ret −/− explants, with or without exogenous GDNF", "value": "remained the same"}, {"measurement": "number of ureteric bud tips", "setting": "[5]; wild-type explants, GDNF 50 ng/ml, 4 days culture", "value": "increased the number of ureteric bud tips"}]}]}
